Measurements: publication PMC5932954, “Evaluation of Fluorine-18-Labeled α1(I)-N-Telopeptide Analogs as Substrate-Based Radiotracers for PET Imaging of Melanoma-Associated Lysyl Oxidase” (Frontiers in Chemistry, 2018)
Where a SMILES comes first, the peptide text is derived from it. [ ]: non-standard residue; d: D form. The star is where a group is joined. Benzoyl(4-F) = O=C(c1ccc(F)cc1)*; pGlu = O=C1CC[C@@H](C(=O)O)N1

B1: α1(I)-N-telopeptide (peptide 1), pGlu-LSYGYDEKSTGISVP-NH2 (peptide)
peptide: [pGlu]LSYGYDEKSTGISVP-NH2
SMILES: CC[C@H](C)[C@H](NC(=O)CNC(=O)[C@@H](NC(=O)[C@H](CO)NC(=O)[C@H](CCCCN)NC(=O)[C@H](CCC(=O)O)NC(=O)[C@H](CC(=O)O)NC(=O)[C@H](Cc1ccc(O)cc1)NC(=O)CNC(=O)[C@H](Cc1ccc(O)cc1)NC(=O)[C@H](CO)NC(=O)[C@H](CC(C)C)NC(=O)[C@@H]1CCC(=O)N1)[C@@H](C)O)C(=O)N[C@@H](CO)C(=O)N[C@H](C(=O)N1CCC[C@H]1C(N)=O)C(C)C
notes: N-terminal telopeptide of the α1 chain of type I collagen; also called N-terminal telopeptide of the α1 chain of type I collagen; authentic isolated α1(I)-N-telopeptide; source: synthetic peptide (microwave-assisted Fmoc solid-phase synthesis)
B2: 4-fluorobenzoylated α1(I)-N-telopeptide analog (peptide 2), FBz-LSYGYDEKSTGISVP-NH2 (peptide)
peptide: {Benzoyl(4-F)}-LSYGYDEKSTGISVP-NH2
SMILES: CC[C@H](C)[C@H](NC(=O)CNC(=O)[C@@H](NC(=O)[C@H](CO)NC(=O)[C@H](CCCCN)NC(=O)[C@H](CCC(=O)O)NC(=O)[C@H](CC(=O)O)NC(=O)[C@H](Cc1ccc(O)cc1)NC(=O)CNC(=O)[C@H](Cc1ccc(O)cc1)NC(=O)[C@H](CO)NC(=O)[C@H](CC(C)C)NC(=O)c1ccc(F)cc1)[C@@H](C)O)C(=O)N[C@@H](CO)C(=O)N[C@H](C(=O)N1CCC[C@H]1C(N)=O)C(C)C
notes: N-terminal telopeptide of the α1 chain of type I collagen without its N-terminal pyroglutamate, which is replaced by a 4-fluorobenzoyl residue; source: synthetic peptide (microwave-assisted Fmoc solid-phase synthesis, as in Kuchar et al., 2012)
B3: DPK-containing undecapeptide 4a, FBz-GGGDPKGGGGG-NH2 (peptide)
chain: {Benzoyl(4-F)}-GGGDPKGGGGG-NH2
SMILES: NCCCC[C@H](NC(=O)[C@@H]1CCCN1C(=O)[C@H](CC(=O)O)NC(=O)CNC(=O)CNC(=O)CNC(=O)c1ccc(F)cc1)C(=O)NCC(=O)NCC(=O)NCC(=O)NCC(=O)NCC(N)=O

Columns and labels:
[1] = target: T1, bovine type I atelocollagen (Bos taurus, UniProt P02453+P02465, DEL1103-1117); experiment: SPR binding of telopeptide derivatives to immobilized atelocollagen; conditions: for Kd / kon / koff / ka2 / kd1 / kd2: SPR; for Kd / ka2 / kd1 / kd2: pH 7.4, 25°C; for Kd: calculated from the individual rate constants (Equation 1); for Kd / kon / koff: n = 5; for kon: calculated as koff/KD (Equation 3), read-out: kon (global association rate constant to final complex); for koff: calculated from the individual rate constants (Equation 2), read-out: koff (global dissociation rate constant of final complex); for ka1: SPR Biacore T100, CM5 chip, analyte 45 to 950 μM, HEPES buffer pH 7.4, 25°C; for ka1 / ka2 / kd1 / kd2: two-state reaction model, mean of n = 5
T1 construct: bovine type I atelocollagen (=pepsin-treated type I collagen; Matrix Bioscience); purchased Matrix Bioscience
T1 sequence (P02453 178-1191 limits assumed, stated change not applied): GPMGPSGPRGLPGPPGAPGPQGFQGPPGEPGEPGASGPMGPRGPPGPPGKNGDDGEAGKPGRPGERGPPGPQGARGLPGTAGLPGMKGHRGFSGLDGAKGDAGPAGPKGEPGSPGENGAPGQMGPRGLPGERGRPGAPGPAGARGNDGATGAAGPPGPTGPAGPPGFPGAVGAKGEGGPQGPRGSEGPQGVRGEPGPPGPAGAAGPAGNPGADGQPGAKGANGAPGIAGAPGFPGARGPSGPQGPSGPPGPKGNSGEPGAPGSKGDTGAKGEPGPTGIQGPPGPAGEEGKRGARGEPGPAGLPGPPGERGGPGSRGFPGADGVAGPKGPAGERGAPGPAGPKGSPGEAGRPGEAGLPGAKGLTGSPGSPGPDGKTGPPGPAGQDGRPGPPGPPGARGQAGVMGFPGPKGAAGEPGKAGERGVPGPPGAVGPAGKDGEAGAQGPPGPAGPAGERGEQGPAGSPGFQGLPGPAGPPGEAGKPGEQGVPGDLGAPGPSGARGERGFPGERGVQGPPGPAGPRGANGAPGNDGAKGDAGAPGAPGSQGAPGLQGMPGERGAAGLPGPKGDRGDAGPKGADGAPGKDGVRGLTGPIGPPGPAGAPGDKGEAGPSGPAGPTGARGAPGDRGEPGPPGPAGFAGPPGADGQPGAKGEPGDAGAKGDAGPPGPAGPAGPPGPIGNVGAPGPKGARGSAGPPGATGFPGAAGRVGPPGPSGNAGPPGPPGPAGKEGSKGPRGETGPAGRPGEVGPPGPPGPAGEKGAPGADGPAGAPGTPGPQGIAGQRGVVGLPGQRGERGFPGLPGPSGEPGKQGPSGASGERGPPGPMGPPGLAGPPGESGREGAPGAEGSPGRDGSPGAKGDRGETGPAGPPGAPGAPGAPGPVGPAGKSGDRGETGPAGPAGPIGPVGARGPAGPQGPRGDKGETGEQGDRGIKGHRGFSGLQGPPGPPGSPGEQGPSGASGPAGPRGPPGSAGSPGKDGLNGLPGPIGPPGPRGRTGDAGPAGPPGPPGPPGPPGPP
T1 sequence (P02465 89-1102 limits assumed, stated change not applied): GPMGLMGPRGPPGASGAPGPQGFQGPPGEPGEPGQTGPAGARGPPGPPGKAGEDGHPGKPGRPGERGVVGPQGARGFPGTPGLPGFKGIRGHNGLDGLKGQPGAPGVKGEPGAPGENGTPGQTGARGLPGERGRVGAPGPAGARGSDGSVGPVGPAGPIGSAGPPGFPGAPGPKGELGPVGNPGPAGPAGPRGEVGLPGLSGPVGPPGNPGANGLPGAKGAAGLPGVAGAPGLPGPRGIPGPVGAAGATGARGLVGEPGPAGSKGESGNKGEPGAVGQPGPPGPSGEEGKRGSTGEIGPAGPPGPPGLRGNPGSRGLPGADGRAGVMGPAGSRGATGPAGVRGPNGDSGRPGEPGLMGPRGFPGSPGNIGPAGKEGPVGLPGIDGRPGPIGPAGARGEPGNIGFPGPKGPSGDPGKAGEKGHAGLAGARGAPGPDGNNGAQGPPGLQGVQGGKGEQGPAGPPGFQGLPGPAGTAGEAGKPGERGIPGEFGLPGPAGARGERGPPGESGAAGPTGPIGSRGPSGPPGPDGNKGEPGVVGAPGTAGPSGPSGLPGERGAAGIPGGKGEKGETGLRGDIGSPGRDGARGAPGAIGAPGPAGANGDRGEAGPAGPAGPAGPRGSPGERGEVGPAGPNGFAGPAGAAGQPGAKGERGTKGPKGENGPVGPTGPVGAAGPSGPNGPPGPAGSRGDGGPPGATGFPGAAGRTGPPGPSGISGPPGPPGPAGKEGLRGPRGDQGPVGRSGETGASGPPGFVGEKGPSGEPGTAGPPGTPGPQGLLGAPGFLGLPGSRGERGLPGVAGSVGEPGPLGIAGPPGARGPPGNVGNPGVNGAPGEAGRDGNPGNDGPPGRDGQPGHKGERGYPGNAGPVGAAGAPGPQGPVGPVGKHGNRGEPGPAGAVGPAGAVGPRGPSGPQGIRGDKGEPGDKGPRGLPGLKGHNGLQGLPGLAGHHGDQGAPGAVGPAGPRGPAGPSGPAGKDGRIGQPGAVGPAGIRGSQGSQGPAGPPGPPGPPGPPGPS
Description: In order to probe binding of the telopeptide derivatives to atelocollagen surface plasmon resonance (SPR) measurements were performed on a T100 Biacore system (GE Healthcare) (Hoppmann et al., [2010]). In brief, bovine type I atelocollagen (=pepsin-treated type I collagen; Matrix Bioscience) was immobilized as ligand on a CM5 (carboxymethylated dextran polymer) sensor chip using EDC/NHS chemistry. About 12,000 arbitrary response (resonance) units (RU) were immobilized. Various concentrations of the analytes (1, 2, and 4a) ranging from 45 to 950 μM were analyzed. The flow buffer used was 10 mM HEPES, 3.0 mM EDTA-Na2, 0.15 M NaCl (pH 7.4) containing 0.05% surfactant P20. Association and dissociation of all analytes was followed in real-time and measured at 25°C at a flow rate of 30 μL/min. After each cycle, the surface was regenerated using 50 mM NaOH. The data were fitted to a two-state reaction model (see scheme below) including reference subtraction and blank buffer correction derived from blank runs using the Biacore Evaluation software 2.0.4.
The parameters KD, koff, and kon were calculated from the individual rate constants by the following equations (Tummino and Copeland, [2008]): […]

[2] = target: bovine type I atelocollagen (pepsin-treated bovine type I collagen) (bovine); experiment: SPR; Biacore T100; bovine type I atelocollagen immobilised on a CM5 chip by EDC/NHS (about 12,000 RU); peptides as analytes, 45 to 950 μM; 10 mM HEPES, 3.0 mM EDTA-Na2, 0.15 M NaCl, pH 7.4, 0.05% surfactant P20; 25°C; 30 μL/min; two-state reaction model; KD, koff and kon calculated from the individual rate constants; conditions: both partners purified

Row | Molecule | Kd [1] [mM] | kon [1] [M⁻¹ s⁻¹] | koff [1] [s⁻¹] | ka1 [1] [M⁻¹ s⁻¹] | ka2 [1] [s⁻¹] | kd1 [1] [s⁻¹] | kd2 [1] [s⁻¹] | Kd [2] [µM] | ka1 (two-state model, step 1) [2] [M⁻¹ s⁻¹] | ka2 (two-state model, step 2) [2] [s⁻¹] | kd1 (two-state model, step 1) [2] [s⁻¹] | kd2 (two-state model, step 2) [2] [s⁻¹] | koff [2] [s⁻¹] | kon [2] [M⁻¹ s⁻¹]
1 | CC[C@H](C)[C@H](NC(=O)CNC(=O)[C@@H](NC(=O)[C@H](CO)NC(=O)[C@H](CCCCN)NC(=O)[C@H](CCC(=O)O)NC(=O)[C@H](CC(=O)O)NC(=O)[C@H](Cc1ccc(O)cc1)NC(=O)CNC(=O)[C@H](Cc1ccc(O)cc1)NC(=O)[C@H](CO)NC(=O)[C@H](CC(C)C)NC(=O)c1ccc(F)cc1)[C@@H](C)O)C(=O)N[C@@H](CO)C(=O)N[C@H](C(=O)N1CCC[C@H]1C(N)=O)C(C)C [Peptide 2, FBz-LSYGYDEKSTGISVP-NH2] ({Benzoyl(4-F)}-LSYGYDEKSTGISVP-NH2) | 0.0788 | 11.2 | 0.000879 |  |  |  |  |  |  |  |  |  |  | 
2 | NCCCC[C@H](NC(=O)[C@@H]1CCCN1C(=O)[C@H](CC(=O)O)NC(=O)CNC(=O)CNC(=O)CNC(=O)c1ccc(F)cc1)C(=O)NCC(=O)NCC(=O)NCC(=O)NCC(=O)NCC(N)=O [Peptide 4a, FBz-GGGDPKGGGGG-NH2] ({Benzoyl(4-F)}-GGGDPKGGGGG-NH2) |  | 6.15 | 0.00398 | 188 | 0.00494 | 0.268 | 0.00411 |  |  |  |  |  |  | 
3 | CC[C@H](C)[C@H](NC(=O)CNC(=O)[C@@H](NC(=O)[C@H](CO)NC(=O)[C@H](CCCCN)NC(=O)[C@H](CCC(=O)O)NC(=O)[C@H](CC(=O)O)NC(=O)[C@H](Cc1ccc(O)cc1)NC(=O)CNC(=O)[C@H](Cc1ccc(O)cc1)NC(=O)[C@H](CO)NC(=O)[C@H](CC(C)C)NC(=O)[C@@H]1CCC(=O)N1)[C@@H](C)O)C(=O)N[C@@H](CO)C(=O)N[C@H](C(=O)N1CCC[C@H]1C(N)=O)C(C)C [Peptide 1, pGlu-LSYGYDEKSTGISVP-NH2, reference compound] ([pGlu]LSYGYDEKSTGISVP-NH2) | 2.17 | 1.34 | 0.00291 | 123 | 0.00532 | 0.75 | 0.00294 |  |  |  |  |  |  | 
4 | B1 |  |  |  |  |  |  |  | 2170 | 123 | 0.00532 | 0.75 | 0.00294 | 0.00291 | 1.34
5 | B2 |  |  |  |  |  |  |  | 78.8 | 57.4 | 0.0141 | 0.0631 | 0.00109 | 0.000879 | 11.2
6 | B3 |  |  |  |  |  |  |  | 647 | 188 | 0.00494 | 0.268 | 0.00411 | 0.00398 | 6.15
